One data set deals with DNA polymerase beta WT (UniProt P06766 1-335). Put plainly: EMSA.
The target of data set [1] is DNA polymerase beta I260Q (UniProt P06766 1-335, I260Q). Put plainly: EMSA.

B1: CII5T A:A (5 nt gap, mispaired primer terminus) (dsDNA)
DNA 1: TTGCGACTTATCAACGCCCACAA
DNA 2: GCTGTCTTCTCAGTTTC
DNA 3: GAAACTGAGAAGACAGCTACTGATGTGGGCGTTGATAAGTCGCAA
modifications: 5'-phosphate on downstream oligo and template
By Kd is commonly meant the concentration at which binding is half-saturated. Low values mean tighter binding, high ones weaker binding. For the molecule B1, the figures for the Kd (with DNA polymerase beta WT; in data set [1]) were 6 nM and 2 nM, respectively.
